We go through two substances from patent US20150285818A1, “Switchable Reporter Enzymes for Homogenous Antibody Detection” (TECHNISCHE UNIVERSITEIT EINDHOVEN, priority 2012, published 2015).

Assay [1] has as its target …-GGG-C(fluorescein). As to the kind of experiment: fluorescence polarization, 2 nM labelled peptide titrated with antibody.
For assay [2], the target named is …-GGG-C(fluorescein). As to the kind of experiment: fluorescence polarization, 2 nM fluorescein-labelled peptide titrated with antibody. On the technique in general: Polarisation of emitted light reports the rotation of a fluorescent probe.
Assay [3] deals with WEKIRLR-GGG-C(fluorescein) (HIV1). As to the kind of experiment: fluorescence polarization, 10 nM labelled peptide titrated with antibody.
Assay [4] has as its target …-GGG-C(fluorescein) (HIV1). The assay is described as above.
Assay [5] addresses WEKIRLR-GGG-C(fluorescein) (HIV1). Kind of assay: fluorescence polarization, 10 nM fluorescein-labelled peptide titrated with antibody.
For assay [6], the target named is …-GGG-C(fluorescein) (HIV1). The assay is described as above.

pKd: −log10 of the molar value.

Usually pKd stands for the negative decadic logarithm of the Kd, by convention in mol/L. Read a low pKd as a high Kd. One may read the EC50 (read off the curve) as the concentration that produces a half-maximal response. In turn, “HA monoclonal antibody (clone 2-2.2.14, Thermo Scientific)” showed a pKd with …-GGG-C(fluorescein) [1] of 9.24. For the same substance, the half-maximal effective concentration (EC50 (read off the curve)) with …-GGG-C(fluorescein) [2] was in the range of 0.001 to 0.002 µM.
“anti-HIV-1-p17 antibody (clone 32/1.24.89, Zeptometrix)”: the pKd in assay [3] is 5.48; in assay [4], 7.62. The EC50 (read off the curve) was found to be 3 µM in assay [5] and 0.03 µM in assay [6].
